The results in this text go back to US20260263607A1, “INHIBITION OF MYC USING HIGH-DENSITY BRUSH POLYMERS” (Northwestern University, priority 2022, published 2026).

Ends that are not written are not given here. norbornene = norbornene on aminohexanoic acid N-terminal cap, polymerised by ROMP; Ahx = NCCCCCC(=O)O

Data set [1] deals with T1, MYC T58A (Homo sapiens, UniProt P01106, T73A).
T1 construct: expressed in transfected cells
Put plainly: Western blot of MYC T58A in PC-3 MYC^T58A cells. In kind it is cell-based. The following applies: 6 h; 2.5 and 5 μM HYDRAC, FIG. 31C. The protocol:
Western BlotAnalysis: Cells were lysed in RIPA (Sigma) lysis buffer containing 1×Halt™ Protease and Phosphatase Inhibitor Cocktail (ThermoFisher). Protein concentration was measured by Bio-Rad Bradford reagent. Protein samples were prepared by addition of 4×Laemmli Sample buffer (Bio-Rad) and 2-mercaptoethanol (Bio-Rad) and resolved on 4-12% SDS-PAGE (Sodium dodecyl sulfate-polyacrylamide) gels, which were subsequently transferred to PVDF membranes (Bio-Rad) using Trans-Blot Turbo transfer buffer (Bio-Rad) and a Trans-Blot Turbo Transfer System (Bio-Rad). Membranes were blocked for 1 h at room temperature with 5% blotting-grade blocker non-fat dry milk (Bio-Rad), followed by overnight 4° C. incubation with the appropriate primary antibody and 1 h room temperature incubation with an anti-rabbit or anti-mouse IgG (H+L)-HRP conjugate (Bio-Rad) secondary antibody. Blots were imaged using Supersignal West Femto Maximum Sensitivity Substrate detection system (Thermo) and the ChemiDoc Imaging System (Bio-Rad). The following primary antibodies were used: c-Myc (Y69) (Abcam #ab32072), Streptavidin-HRP (PerkinElmer NEL750), GAPDH (Cell Signaling #3683) and Actin (Cell Signaling #5125). Quantification analyses were performed by Biorad ChemiDoc Imager and Bio-Rad Image Lab software. […]
(Immunoblotting shows a protein as a band on a membrane.)

Data set [2] addresses full length Max (Homo sapiens, UniProt P61244). Put plainly: Circular dichroism, binding to Max. The following applies: 1 μM PLP plus 5 μM Max. The protocol: (§1) Circular Dichroism (CD) Spectroscopy: CD spectra were obtained on a JASCO J-815 spectrometer equipped with a Peltier sample holder for temperature control. Polymer samples were dissolved in buffered solvent to concentrations of approximately 1 μM, and placed into a 1 cm quartz cuvette (Hellma). Protein samples were measured at 5 μM. All samples were equilibrated at room temperature for at least thirty minutes prior to measurement, with mixtures (i.e. protein and polymer combinations) being generally equilibrated for 12 hours prior to measurement. Spectra were obtained using a scan speed of 10 nm/min, using a 1 nm bandwidth, 4 sec response time, and with three accumulations. Background spectra of solvent were obtained prior to measurement of the sample solutions, and subtracted from the sample spectra using JASCO Spectra Analysis. For melting experiments, the temperature was varied between 2° and 91° C. with steps of 1° C./min, while measuring the ellipticity at 222 nm with a 2 nm bandwidth.
(§2) It has been previously reported (Blum et al., Kammeyer et al., and Berger et al., Mussel Adhesive-Inspired Proteomimetic Polymer, Journal of Am. Chem. Soc., 144, 4383-4392 (2022)) that peptide brush polymers with a DP around 15 synthesized in a similar manner maintain payload bioactivity and readily enter cells. As such, initial HYDRAC designs revolved around this molecular size range. […]
(CD spectra are sensitive to the conformation of chiral molecules.)

The target of data set [3] is T2, b-HLH-LZ domain of Myc (Homo sapiens, UniProt P01106).
T2 construct: dimerize with either the b-HLH-LZ domain of Myc or full length Max
Put plainly: Circular dichroism, dimerization with Myc b-HLH-LZ. In kind it is binding. The settings on record: 1 μM PLP plus 5 μM bHlH. The protocol: as §1, §2

The subject of data set [4] is PC-12 Pheochromocytoma (which lack the Myc dimerization partner Max) cell lines. As to the kind of experiment: PC-12 cell viability. The settings on record: treated for 3 days, FIG. 5A. In kind it is cell-based. The protocol:
(§3) Cell Culture: PC-3, PC-12, A549 cells were obtained from ATCC; Mouse MycCaP cells were the kind gift of Charles Sawyers (Memorial Sloan-Kettering Cancer Centre). All cells were authenticated and tested as mycoplasma-free. PC-3 and A549 cells were grown in F12K (Gibco) medium; MycCaP cells in DMEM medium (Gibco), all supplemented with 10% heat-inactivated fetal bovine serum (FBS, Gibco). PC-12 cells were grown in F-12K medium (ATCC) with 5% heat-inactivated FBS and 10% heat-inactivated horse serum (Thermo). All cells were cultured in 1% Penicillin-Streptomycin (10,000U/ml, Life Technologies) and 5% CO2 in a humidified incubator at 37° C.
(§4) Cell Proliferation Assays: Cell viability was estimated using the CellTiter-Glo® Luminescent Cell Viability Assay (Promega). […] After 3 to 5 days following the treatment, CellTiter-Glo reagent was added mixed 1:1 vol/vol with fresh media, plates incubated for 10 minutes on a shaking rotator followed by 10 minutes without shaking at room temperature (protected from light using aluminum foil) and luminescence was measured using plate reader (Perkin Elmer Victor 3V).
(§5) This example provides data supporting toxicity of cancer cells in vitro after treatment with Myc-targeted PLPs. […] Cells were treated with PLP 5.2 for 3 days and cellular viability was recorded. […]

Data set [5] addresses T3, Myc protein from PC-3 cell lysates (Homo sapiens, UniProt P01106).
T3 construct: Degradation of endogenous Myc protein in PC-3 cells was explored; endogenous in cells; host or cells: PC-3
As to the kind of experiment: In vitro pull down assay with biotin-terminated PLPs. In kind it is binding. The following applies: PC-3 cell lysate, 10 μM or 2 μM biotinylated PLPs, FIG. 5B. As for the experimental part:
In vitro Pull Down Assay: To confirm PLP direct binding to endogenous Myc protein in cell lysate complex, biotin conjugated PLP was synthesized. Collected PC-3 cell pellet (2 million cells per pulldown condition) was suspended in 300 μL pulldown lysis buffer (pH 7.4 50 mM Tris-HCl, 150 mM NaCl, 1 mM EDTA, 0.1% IGEPAL nonionic detergent+1× Halt protease/phosphatase inhibitor cocktail) and lysed by repeat (3×) freeze-thawing in liquid nitrogen. The lysed cell pellets were spun at 4° C. for 15 minutes at 15,000 rpm on a Eppendorf 5424R centrifuge. The collected supernatants were pre-cleared with Pierce streptavidin magnetic beads (Thermo, 88817) for 1 hr at 4° C. For Examples 7 and 10, around 300 μg was applied to each sample and incubated with 5 μM of HYDRAC, scrambled HYDRAC, 10 μM of H1 homopolymer, scrambled H1 homopolymer or D-Biotin on a rotator over night at 4° C. […]
It has been previously reported (Blum et al., Kammeyer et al., and Berger et al., Mussel Adhesive-Inspired Proteomimetic Polymer, Journal of Am. Chem. Soc., 144, 4383-4392 (2022)) that peptide brush polymers with a DP around 15 synthesized in a similar manner maintain payload bioactivity and readily enter cells. […]
as §5

Data set [6] deals with PC-3 prostate cancer cells. Put plainly: PC-3 cell viability / toxicity (CellTiter-Glo). In kind it is cell-based. The settings on record: PC-3, 72 hours treatment, FIG. 2D; read-out: IC50 (concentration of peptide which exhibited 50% cell viability for PC-3). As for the experimental part: as §3, §4
This example evaluates the toxicity of Myc-targeting PLPs in the PC-3 cancer cell line. • Example 3.1—Generation of Block and Statistical Copolymers. […] Cellular viability was assessed via the Cell Prolferation Assays protocol provided above. • Example 3.2—Results. […]
(In ATP-based viability assays light output follows the ATP content of the culture.)

Data set [7] concerns the target endogenous Myc protein of PC-3 cells (in PC-3 cell lysate or in the cells) (UniProt P01106 1-454, limits assumed). Put plainly: cell-based or functional assay.

Sequence of full length Max (P61244 whole entry): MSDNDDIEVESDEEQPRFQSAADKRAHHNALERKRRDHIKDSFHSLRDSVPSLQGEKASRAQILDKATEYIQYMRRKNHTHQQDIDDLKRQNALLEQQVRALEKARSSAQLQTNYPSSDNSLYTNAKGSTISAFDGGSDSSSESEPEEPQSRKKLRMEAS
Sequence of endogenous Myc protein of PC-3 cells (in PC-3 cell lysate or in the cells) (P01106 whole entry): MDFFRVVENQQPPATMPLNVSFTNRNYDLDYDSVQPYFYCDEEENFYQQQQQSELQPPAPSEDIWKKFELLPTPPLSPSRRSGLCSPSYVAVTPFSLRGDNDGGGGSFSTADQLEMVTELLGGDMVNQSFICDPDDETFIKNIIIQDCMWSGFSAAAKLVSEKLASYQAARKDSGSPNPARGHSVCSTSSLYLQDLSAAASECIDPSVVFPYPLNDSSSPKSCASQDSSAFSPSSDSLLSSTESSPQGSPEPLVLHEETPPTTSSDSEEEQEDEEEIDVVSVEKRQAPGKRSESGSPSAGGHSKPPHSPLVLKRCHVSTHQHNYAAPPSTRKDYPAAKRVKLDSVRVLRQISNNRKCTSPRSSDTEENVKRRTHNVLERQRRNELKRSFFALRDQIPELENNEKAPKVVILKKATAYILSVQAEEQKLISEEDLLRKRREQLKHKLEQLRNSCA
T3 sequence (P01106 whole entry): as above
T1 sequence (P01106 16-454 T73A): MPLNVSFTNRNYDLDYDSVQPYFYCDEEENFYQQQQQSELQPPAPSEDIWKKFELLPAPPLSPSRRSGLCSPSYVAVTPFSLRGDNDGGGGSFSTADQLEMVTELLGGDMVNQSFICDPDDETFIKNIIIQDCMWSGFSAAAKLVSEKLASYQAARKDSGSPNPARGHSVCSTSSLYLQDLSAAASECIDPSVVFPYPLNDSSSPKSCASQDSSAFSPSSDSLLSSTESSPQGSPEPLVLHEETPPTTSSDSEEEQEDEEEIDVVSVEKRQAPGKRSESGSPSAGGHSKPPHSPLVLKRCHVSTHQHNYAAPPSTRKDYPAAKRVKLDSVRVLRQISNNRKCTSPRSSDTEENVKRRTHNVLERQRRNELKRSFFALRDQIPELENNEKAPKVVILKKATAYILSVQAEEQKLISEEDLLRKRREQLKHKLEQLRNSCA
T2 sequence (P01106 368-454 limits assumed): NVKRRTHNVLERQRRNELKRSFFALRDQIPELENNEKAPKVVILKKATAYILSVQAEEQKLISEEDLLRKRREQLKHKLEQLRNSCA

Take `Cn1nc(C(F)(F)F)cc1-c1ccc(OCc2ccc(Cl)cc2)c(-c2ccc(Cl)c(C(F)(F)F)c2)c1O` [MYCi975]: the “MYC^T58A protein level” value in data set [1] was “only minor changes in mutant MYC levels”.
Take “H16-stat-RRRG7 (peptide 1 NELKRAFAALRDQI) [H1-R PLP]”: in data set [2], the “Max binding (CD)” value is recorded as “limited Max/HYDRAC binding”. Moreover, the “heterodimerization with Myc b-HLH-LZ (CD)” value in data set [3] is “selective Myc/HYDRAC heterodimerization in the low micromolar range”.
In turn, “H17-stat-RRRG6 (peptide 1 NELKRAFAALRDQI) [PLP 5.2]” returned an IC50 in data set [4] of 10.2 µM. Besides, the Myc pull down entry in data set [5] was “capable of direct endogenous binding to Myc protein”.
Consider “NELKRAFAALRDQI-NH2 [unpolymerized H1 peptide, NELKRAFAALRDQI, reference compound]”, for which, in data set [6], the IC50 amounted to 700 µM.

B1: PLP 5.2, H17-stat-RRRG6 (Example 9.4, FIG. 5A) (other)
peptide 1: {norbornene-Ahx}-NELKRAFAALRDQI-NH2
peptide 2: {norbornene-Ahx}-RRRG-NH2
modifications: also: polymerised through N-terminal norbornene by ROMP into polymer backbone, statistical copolymer of both peptides
On to B1, for which the “IC50 of PC-3 cell viability after 3 days of treatment (CTGlo)” value in data set [7] was 0.49 µM.
